According to the RNAGym collection of RNA variant scans (doi:10.1073/pnas.2313332121):
This sample holds only a part of the variants without activity.

B1: TPR 5TU (parent)
chain: GGAUCUUCUCGAUCUAACAAAAAAGACAAAUCUGCCACAAAGCUUGAGAGCAUCUUCGGAUGCAGAGGCGGCAGCCUUCGGUGGCGCGAUAGCGCCAACGUUCUCAACUAUGACACGCAAAACGCGUGCUCCGUUGAAUGGAGUUUAUCAUG

Variants of: B1
Test: polymerase ribozyme fitness, log enrichment relative to wild type (log ratio); higher = more active; in vitro selection for triplet polymerase activity
In short: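 For each subunit of a heterodimeric triplet polymerase ribozyme, a mutant library was built by PCR and transcribed, then taken through a single in vitro selection round in triplicate. Selection involved annealing to a biotinylated primer, the partner subunit and triplets, incubation frozen at −7 °C, gel excision of extended constructs, capture on streptavidin beads and RT-PCR. Genotypes were retained after Illumina sequencing of inputs and outputs only with ≥10 input reads and ≥1 read in each output. Fitness is defined as the logarithm of a genotype's enrichment relative to wild-type enrichment, using inverse-variance-weighted averages across replicates, with the logarithm taken to base 2.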

| Variant | polymerase ribozyme fitness (log ratio) |
| --- | --- |
| GGAUCUUCUCGAUCUAACAAAAAAGACAAAUCUGCCACAAAGCUAGAGAGCAUCUUCGGAUGCAGAGGCGGCAGCCUUCGGUGGCGCGAUAGCGCCAACGUUCUCAACUAUGACACGCAAAACGCGUGCUCCGUUGAAUGGAGUUUAUCAUG [U45A] | -2.1 |
| GGAUCUUCUCGAUCUAACAAAAGAGACAAAUCUGCCACAAAGCUUGAGAGCAUGUUCGGAUGCAGAGGCGGCAGCCUUCCGUGGCGCGAUAGCGCCAACGUUCUUAAUUAUGCCACGCAAAACGCGUGCUCGGUUGAAUGGAGUUUAUCAUG [A23G C54G G80C C105U C108U A113C C132G] | ≤ -4.2 |
| GGAUCUUCCCGAUCUAACAAAAAAGUCAAAUCUGCCACAAAGCUUGAGAGCAUUUUCGGAUGCAGAGGCGGCAGCCUUCGGUGGCGCGAUAACGCCAACGUUCUCAACUAUGACACGCAAAACGCGUGCUCCGUUGAAUGGAGUUUAUCAUG [U9C A26U C54U G92A] | ≤ -4.2 |
| GGAUCUUCUCGAUCUAACAAAAAAGACAAAUCUGCCACAAAGCUCGAGAGCAUCUUCGGAUGCAGAGGCGGCAGCCUUCGGUGGCGCGAUAGCGCCAACGUUCUCAACUAUGACACGCAAAACGCGUGCUCCGUUGAAUGGAGUUUAUCAUG [U45C] | 0.188 |
| GGAUCUUCUCGAUCUAACAAAAAAGACAAAUCUGCCACAAAGCUUGAGAGCAUCUUCGGAUGCAGAGGCGGCAGCCUUCGGUGGCGCGAUAACGCCAACGUUUUCAACUAUGACAUGCAAGACGCGUGCUCCGUUGAAUGGAGUUUAUCAUG [G92A C103U C116U A121G] | -3.47 |
| GGAUCUUCUCGAUCUAACAAAAAAGUCAAAUCUGCCACAAAGCUUGAGAGCAUGUUCGGAUGCAGAGGCGGCAGCCUUCGGUGGCGCGAUAGCGCCAACGUUCUCAACUAUGACACGCAAAACGCGUGCUCCGUUGAAUGGAGUUUAACAUG [A26U C54G U148A] | ≤ -4.2 |
| GGAUCUUCUCUAUCUAACAAAAAAGUCAAAUCUGCCACAAAGCUUGAGAGCAUCUUCGGAUGCAGAGGCGGCAGCCUUCGGAGGCGCGAUAGAGCCAACGUUCUCAACUAUGACACGCAAAACGCGUGCUCCGUUGAAUGGAGUUUAUCAUG [G11U A26U U82A C93A] | ≤ -4.2 |
| GGAUCUUCUCGAUCUAACAAAAAAGACAAAUCUGCCACAAAGCUUGAGAGCAUCUUCGGAUGCAGAGGUGGCAGCCUUCGGUGGCGCGAUAGCGCCAACGUUCUCAACUAUGACACGCAAAACGCCUGCUCCGUUGAAUGGAGUUUAUCAUG [C69U G126C] | -0.197 |
| GGAUCUUCUCGAUCUAACAAAAAAGACAAAUCUGCCACAAAGCUUGAGAGCCUCUACGGAUGCAGAGGCGGCAGCCUUCGGUGGCACGAAAGCGCCAACGUUCUCACCUAUGACACGCAAAACGCGUGCUCCGUUGAAUGGAGUUUAUCAUG [A52C U56A G86A U90A A107C] | ≤ -4.2 |
| GGAUCUUCUCGAUCUAACAAAAAAGACAAAUCUGCCACAAAGCUUGAAAACAUCUUCCGAUGCAGAGGCGGCAGCCUUCGGUGGCGGGAUAGCGCCAACGUUCUCAACUAUGACACGCAAAACGCGUGCUCCGUUGAAUGGAGUUUAUCAUG [G48A G50A G58C C87G] | ≤ -4.2 |
| GGAUCUUCUCGAUCUAACAAAAAAGACAAAUCUGCCACACAGCUUGAGAGCAUCUUCGGAUGCAGAGGCGGCAGCCUUCGGUUGCGCGAUAGCGCCAACGUUCUCAACUAUGACACGCGAAACGCGUGCUCCGUUGAAUGGAGUUUAUCAUG [A40C G83U A119G] | -1.55 |
| GGAUCUUCUCGAUCUAACAAAAAAGACAAAUCUGCCAUAAAGCUUGCGAGCAUCUUCGGAUGCAGAGGCGGCAGCCUUCGGUGGCGCGAUAGCGCCAACGUCCUCAACUAUGACACGCUAAACGCGUGCUCCGUUGAAUGGAGUUUAUCAUG [C38U A47C U102C A119U] | -3.66 |
| GGAUCUUCUCGAUCUAAGAAAAAAGACAAAUCUGUCACAAAGCUUGAGAGCAUCAUCGGAUUCAGAGUCGGCAGUCUUCGGUGGCGCGAUAGCGCUAACGUUCUCAACUAUGACACGCAAAACGCGUGCUCCGUUGAAUGGAGUUUAUCAUG [C18G C35U U55A G62U G68U C75U C96U] | ≤ -4.2 |
| GGAUCUUCUCGAUCUAACAAAAAAGACAAACCUGCCACAAAGCUUGAGAGCAUCUUCGGAUGCAGAGGCGGCAGCCUUCGGUGGCGCGAUAGCCCCAACGUUCUCAACUAUGACACGCAAAACGCGUGCUCCGUUGAAUGGAGUUUAUCAUG [U31C G94C] | 0.811 |
| GGAUCUUCUCGAUCUAACAAAAAAGACAAAUCUGCCAAAAAGCUUGAGAGCAUCUUCGGAUGCAGAGGCGGCAGCCUUCGGUGGCGCGAUAGCGUCAACGUUCUCAACUAUGACACGCAAAACGCGUGCUCCGUUGAAUGGAGUUUAUCAUG [C38A C95U] | -0.419 |
| GGAUCUUCUCGAUCUAACAAAAAAGACAAAUCUGCCACAAAGUUUGAGAGAAUCUUCGGAUGCAGAGGCGGCAGCCUUCGGUGGCUCGAUAGCGCCAACGUUCUCAACUAUGACACGCAAAACGCAUGCUCCGUUGCAUGGAGUUUAUCAUG [C43U C51A G86U G126A A137C] | ≤ -4.2 |
| GGAUCUUCUCGAUCUAACAAAAAAGACAAAUCUGCCACAAACCUUGAGAGCAUCUUCGGAUGCAGAGGCGGCAGGCUUCGGUGGCGCGAUAGCGCCAACGUUCUCAACUAUGACACGCAAAACGCGUGCUCCGUUGAAUGGAGUUUAUCAUG [G42C C75G] | ≤ -4.2 |
| GGAUCUUCUCGAUCUAACAAAAAAGACAAAUCUGCCACAAAGCUUGAGAGCAUCUUCGGAUGCACAGGCGGCAGCCUUCGGUGGCGCGAUAACGCCAACGUUCUCAACUAUGACACGCAAAACGCGUGCUCCGUUGCAUGCAGUUUAUCAUG [G65C G92A A137C G141C] | ≤ -4.2 |
| GGAUCUUCUCGAUCUAACAAAAAAGACAAAUUUGCCACAAAGCUUGAGAGCAUCUUCGGGUGCAGAGGCGGCAGCCUUCGGUGGCGCGAUAGCGCCAACGUUCUCAACUAUGACACGCAAAACGCGUGCUCCGUUGAAUGGAGUUUAUCAUG [C32U A60G] | -1.63 |
